Assay [1] addresses T1, human transferrin receptor (human, UniProt P02786 89-760, limits assumed).
T1 construct: also called hTfR; human TfR
Nature of the assay: ELISA, plate-coated human TfR, anti-human IgG-HRP detection; WT run beside VH Y27H. The procedure:
(§1) Human TfR (2.5 μg/ml) was coated on a 96-well half area plate (Corning) overnight at 4° C. Antibodies were prepared by diluting 5-fold from 50 nM to 0.64 pM. PBS (pH 7.5; same as blocking buffer) containing 5% skim milk was used for dilution. The plate was washed three times with PBS at pH 7.5, and then blocked with blocking buffer at room temperature for 2 hours and washed several more times. Various concentrations of anti-TfR antibodies were placed in the wells, and binding was induced for 2 hours. Unbound antibodies were then washed twice with PBST and twice with PBS.
(§2) Horseradish peroxidase (HRP)-conjugated anti-human IgG antibody (AB frontier) was added and incubated for 2 hours. After the antibody washing step, 50 μl of TMB solution was added and incubated at 37° C. for 20 minutes. Finally, an equal volume of stop solution was added and mixed, and then the absorbance was measured at 450 nm using an EMax Microplate Reader (Molecular Devices). Steps other than TMB incubation were performed at room temperature.

The target of assay [2] is T1, human transferrin receptor. Nature of the assay: ELISA, plate-coated human TfR, anti-human IgG-HRP detection; WT run beside VH Y98A. The procedure: as §1, §2
Assay [3] concerns the target T1, human transferrin receptor. Nature of the assay: ELISA, plate-coated human TfR, anti-human IgG-HRP detection; WT run beside VH Y99H. The procedure: as §1, §2
Assay [4] addresses T1, human transferrin receptor. Nature of the assay: ELISA, plate-coated human TfR, anti-human IgG-HRP detection; WT run beside VL Y94A. The procedure: as §1, §2
The target in assay [5] is T1, human transferrin receptor. Nature of the assay: ELISA, plate-coated human TfR; mutant against WT. The procedure: as §1, §2
In assay [6] the target is T1, human transferrin receptor. Nature of the assay: ELISA, plate-coated human TfR, anti-human IgG-HRP detection. The procedure:
as §1, §2

Numbering of substitutions follows the chain as printed. In names and notes the source's numbering stands.

T1 sequence (P02786 89-760 limits assumed): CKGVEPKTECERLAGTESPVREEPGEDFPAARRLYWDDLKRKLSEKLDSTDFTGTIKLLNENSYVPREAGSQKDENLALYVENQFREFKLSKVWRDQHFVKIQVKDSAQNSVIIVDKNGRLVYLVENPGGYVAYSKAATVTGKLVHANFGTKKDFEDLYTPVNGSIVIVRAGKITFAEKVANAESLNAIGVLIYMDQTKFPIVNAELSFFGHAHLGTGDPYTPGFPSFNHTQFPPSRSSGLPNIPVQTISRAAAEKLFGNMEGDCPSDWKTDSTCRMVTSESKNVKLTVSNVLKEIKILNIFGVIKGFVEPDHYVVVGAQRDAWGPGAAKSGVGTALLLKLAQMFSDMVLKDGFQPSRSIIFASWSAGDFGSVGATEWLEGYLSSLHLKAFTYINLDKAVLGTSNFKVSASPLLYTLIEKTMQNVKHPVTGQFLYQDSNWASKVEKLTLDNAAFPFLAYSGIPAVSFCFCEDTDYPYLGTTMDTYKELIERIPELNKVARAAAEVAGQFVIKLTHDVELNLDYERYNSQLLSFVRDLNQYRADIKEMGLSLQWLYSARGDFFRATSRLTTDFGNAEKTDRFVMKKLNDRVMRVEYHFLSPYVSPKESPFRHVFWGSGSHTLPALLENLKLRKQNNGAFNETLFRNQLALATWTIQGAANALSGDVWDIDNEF

B1: anti-human transferrin receptor antibody 128.1, wild type (WT) (antibody, V domains shown)
VH: EVQLQQSGPELVKPGASMKISCKASGYSFTGYTMNWVKQSHGENLEWIGRINPHNGGTDYNQKFKDKAPLTVDKSSNTAYMELLSLTSEDSAVYYCARGYYYYSLDYWGQGTSVTVSS
VL: QIVLTQSPAIMSASPGEKVTMTCSASSSIDYIHWYQQKSGTSPKRWIYDTSKLASGVPARFSGSGSGTSYSLTISSMEPEDAATYYCHQRNSYPWTFGGGTRLEIR
notes: The ELISA detects with anti-human IgG-HRP; also called anti-hTfR antibody; anti-TfR(WT)
In the case of B1, the EC50 came out at 0.057 nM in assay [1], 0.53 nM in assay [2], 0.048 nM in assay [3] and 0.44 nM in assay [4].

B2: anti-human transferrin receptor antibody 128.1 with VH Y27H mutation (antibody, V domains shown)
VH: B1 VH with Y27H
VL: B1 VL
notes: Same vector format as WT (human IgG constant region with myc-His tag, human kappa CL); also called anti-TfR(VH Y27H)
On to B2, for which, in assay [5], the “Fold-increase of EC50 (Reduced rate of binding affinity)” value was 35 fold. The EC50 in assay [6] was 1.98 nM.

B3: anti-human transferrin receptor antibody 128.1 with VH Y99H mutation (antibody, V domains shown)
VH: B1 VH with Y103H
VL: B1 VL
As for B3, the “Fold-increase of EC50 (Reduced rate of binding affinity)” value in assay [5] was 9.2 fold. The EC50 in assay [6] was determined as 0.44 nM.

B4: anti-human transferrin receptor antibody 128.1 with VL Y94A mutation (antibody, V domains shown)
VH: B1 VH
VL: B1 VL with Y93A
For B4, in assay [5], the “Fold-increase of EC50 (Reduced rate of binding affinity)” value stood at 1.2 fold. Besides, in assay [6], the response was half-maximal at 0.52 nM (EC50).

B5: anti-human transferrin receptor antibody 128.1 with VH Y98A mutation (antibody, V domains shown)
VH: B1 VH with Y102A
VL: B1 VL
On to B5, for which the “Fold-increase of EC50 (Reduced rate of binding affinity)” value in assay [5] was above 100 fold.
